From US20190352365

Columns and labels:
[1] = molecular target: T1, CBD-intein-S-TEV site-liraglutide fusion protein
T1 chain: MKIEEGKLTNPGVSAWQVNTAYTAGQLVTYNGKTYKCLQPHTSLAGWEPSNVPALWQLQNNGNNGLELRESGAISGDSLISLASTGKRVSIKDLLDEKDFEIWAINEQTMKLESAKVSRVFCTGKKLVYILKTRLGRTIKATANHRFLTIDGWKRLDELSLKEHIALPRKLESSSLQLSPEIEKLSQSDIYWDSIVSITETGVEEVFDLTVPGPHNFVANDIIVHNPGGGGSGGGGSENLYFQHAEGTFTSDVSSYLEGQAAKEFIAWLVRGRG

[2] = molecular target: T2, CBD-intein-Spacer(S)-TEV site-teriparatide fusion protein
T2 chain: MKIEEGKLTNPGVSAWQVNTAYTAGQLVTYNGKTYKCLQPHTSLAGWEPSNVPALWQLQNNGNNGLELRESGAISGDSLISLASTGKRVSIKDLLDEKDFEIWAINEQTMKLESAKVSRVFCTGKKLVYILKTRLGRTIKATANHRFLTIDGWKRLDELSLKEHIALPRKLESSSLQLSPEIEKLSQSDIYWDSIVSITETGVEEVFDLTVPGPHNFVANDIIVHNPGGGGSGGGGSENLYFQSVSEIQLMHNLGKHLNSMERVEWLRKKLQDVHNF

B1: TEV protease (protein)
chain: GESLFKGPRDYNPISSTICHLTNESDGHTTSLYGIGFGPFIITNKHLFRRNNGTLLVQSLHGVFKVKNTTTLQQHLIDGRDMIIIRMPKDFPPFPQKLKFREPQREERICLVTTNFQTKSMSSMVSDTSCTFPSSDGIFWKHWIQTKDGQCGSPLVSTRDGFIVGIHSASNFTNTNNYFTSVPKNFMELLTNQEAQQWVSGWRLNADSVLWGGHKVFMSKPEEPFQPVKEATQLMNELVYSQ
With B1 the “TEV protease-mediated cleavage of the fusion protein (SDS-PAGE, pH 8.0)” value [1] was “cleavage by the TEV protease resulted in the release of liraglutide” and the “TEV protease-mediated cleavage of the fusion protein (SDS-PAGE and western blot, pH 8.0 and pH 7.0)” value [2] was “cleavage by the TEV protease resulted in the release of teriparitide”.
